Laboratory results as given in patent US20150098945A1 (Daiichi Sankyo, published 2015).
Substitutions are numbered along the chain they refer to.

T1: human ROBO2 (pCI-hROBO2-transfected HEK293 cells) (human)
T1 chain: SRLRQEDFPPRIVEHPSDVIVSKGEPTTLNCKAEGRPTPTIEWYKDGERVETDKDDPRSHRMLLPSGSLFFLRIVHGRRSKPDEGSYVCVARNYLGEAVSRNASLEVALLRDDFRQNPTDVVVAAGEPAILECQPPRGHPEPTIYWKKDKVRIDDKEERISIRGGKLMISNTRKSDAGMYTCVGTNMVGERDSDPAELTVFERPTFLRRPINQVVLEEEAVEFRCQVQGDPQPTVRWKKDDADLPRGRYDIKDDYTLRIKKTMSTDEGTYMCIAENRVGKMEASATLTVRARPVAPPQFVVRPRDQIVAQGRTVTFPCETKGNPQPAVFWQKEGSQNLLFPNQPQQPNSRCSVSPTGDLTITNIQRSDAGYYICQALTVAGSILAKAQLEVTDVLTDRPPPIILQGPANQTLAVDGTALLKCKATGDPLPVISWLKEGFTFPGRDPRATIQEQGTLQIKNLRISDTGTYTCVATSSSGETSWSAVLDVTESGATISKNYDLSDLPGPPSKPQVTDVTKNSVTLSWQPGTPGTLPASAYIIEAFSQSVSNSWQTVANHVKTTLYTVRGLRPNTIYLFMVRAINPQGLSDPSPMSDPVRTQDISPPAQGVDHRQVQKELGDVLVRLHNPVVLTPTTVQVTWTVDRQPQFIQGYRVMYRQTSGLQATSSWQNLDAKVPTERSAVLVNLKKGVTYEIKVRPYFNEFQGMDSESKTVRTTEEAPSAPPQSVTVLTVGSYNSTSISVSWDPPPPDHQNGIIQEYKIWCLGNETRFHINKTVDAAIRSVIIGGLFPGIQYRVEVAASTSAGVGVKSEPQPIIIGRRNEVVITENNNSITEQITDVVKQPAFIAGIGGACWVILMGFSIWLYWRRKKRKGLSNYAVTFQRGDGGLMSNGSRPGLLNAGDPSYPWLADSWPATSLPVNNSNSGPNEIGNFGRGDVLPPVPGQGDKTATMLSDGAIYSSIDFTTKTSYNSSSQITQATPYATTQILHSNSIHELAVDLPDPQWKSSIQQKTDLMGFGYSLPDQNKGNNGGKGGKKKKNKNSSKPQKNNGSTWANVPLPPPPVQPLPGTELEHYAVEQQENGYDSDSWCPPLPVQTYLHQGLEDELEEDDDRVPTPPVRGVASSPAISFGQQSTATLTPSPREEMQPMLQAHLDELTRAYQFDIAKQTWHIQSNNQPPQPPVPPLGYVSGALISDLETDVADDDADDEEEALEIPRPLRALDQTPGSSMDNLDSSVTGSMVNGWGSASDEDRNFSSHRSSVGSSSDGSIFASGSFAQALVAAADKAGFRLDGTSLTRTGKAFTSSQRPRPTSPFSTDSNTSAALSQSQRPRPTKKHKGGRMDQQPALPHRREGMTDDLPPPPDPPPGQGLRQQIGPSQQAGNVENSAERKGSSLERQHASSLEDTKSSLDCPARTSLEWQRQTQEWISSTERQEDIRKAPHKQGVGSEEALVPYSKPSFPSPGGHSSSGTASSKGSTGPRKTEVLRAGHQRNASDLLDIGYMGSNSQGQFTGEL

B1: humanized MAb1 antibody H-1143 (antibody, human IgG2, kappa, V domains shown)
VH: EVQLVESGGGLVQPGGSLRLSCAASGFTFSTYAMSWVRQAPGKGLEWVATISQGGTYTYYPDSVKGRFTISRDNAKNTLYLQMNSLRAEDTAVYYCARLIYYDYLDYWGQGTLVTVSS
VL: DIVMTQSPLSLPVTLGEPASISCRSSQSLENENKNLYLNWYLQKPGQSPQLLIYRVSNRFSGVPDRFSGSGSGTDFTLKISRVEAEDVGVYYCLQVTHVPWTFGPGTKVDIKR
notes: Human IgG2 / kappa constant regions; also called hMAb1-H2-type heavy chain + hMAb1-L2-type light chain
B2: humanized MAb1 antibody H-2140 (antibody, human IgG2, kappa, V domains shown)
VH: B1 VH with G44R
VL: B1 VL with E32S, K34G, L36T
notes: Human IgG2 / kappa constant regions; also called hMAb1-H4-type heavy chain + hMAb1-L1-type light chain
B3: humanized MAb1 antibody H-2143 (antibody, human IgG2, kappa, V domains shown)
VH: B1 VH with G44R
VL: B1 VL
notes: Human IgG2 / kappa constant regions; also called hMAb1-H4-type heavy chain + hMAb1-L2-type light chain

Molecular target: T1, human ROBO2 (pCI-hROBO2-transfected …)
Assay: flow cytometry (FC500), HEK293 cells transfected with pCI-hROBO2, FITC goat anti-human IgG Fc; control histogram IgG (human IgG)

| Binder | binding result |
| --- | --- |
| B1 | no binding (tested: 10 µg/mL) |
| B2 | no binding (tested: 10 µg/mL) |
| B3 | no binding (tested: 10 µg/mL) |
